Measured values published in the DeepSol protein solubility set.

Assay: soluble on expression in E. coli; label from the status in PepcDB or PDB records

Row | Sequence | soluble on expression in E. coli
1 | MALHPAHPGAIIGHEAVLALLPRLTAQTLLFSGPEGVGRRTVARWYAWGLNRGFPPPSLGEHPDVLEVGPKARDLRGRAEVRLEEVAPLLEWCSSHPRERVKVAILDSAHLLTEAAANALLKLLEEPPSYARIVLIAPSRATLLPTLASRATEVAFAPVPEEALRALTQDPELLRYAAGAPGRLLRALQDPEGYRARMARAQRVLKAPPLERLALLRELLAEEEGVHALHAVLKRPEHLLALERAREALEGYVSPELVLARLALDLET | soluble
2 | EIVHLGLEDNDFDNDINPLETTGAYLSPKEFKEALLDKDTVVLDTRNDYEYDLGHFRGAIRPDIRNFRELPQWVRDNKEKFMDKRVVVYCTGGVRCEKFSGWMVREGYKDVGQLHGGIATYGKDPEVQGELWDGKMYVFDERIAVDVNHVNPTIVGKDWFDGTPCER | not soluble
3 | MGSDKIHHHHHHMDLRDLTYFETIAELGHLGRAAEKLNRSQPALTKSIQRLEESFGTRLFQRDGRRIKLTPVGELLQARGKELQQSIAQTQREVRDFASGMVGNIRVGCAATMAEYLMPKLTSALLQRTPDVTFKLVIGQDDLLRESLRSGQLDMIICALAPDSDDVTSFAVLKDEAVVIASKHHPIFKTPLQMSDLCAYRWVLPPVSVSSRKWLDTTFAAHGLPLPTVQIEANSISLLPGLIAQSNLLSFVARESLEFGKTMQHLREVPLEQTTLKRTIGVTLRKGGYLSPAAEGMLQMLRDNGGDFLGWG | not soluble
4 | GPGSMRVDVEAVFEKIRPALEVAEVGAWSKTDITTFMSLVSGFCDIQRQQLRARRGKRRDGHDCEQNVDKEGGCEDGCGVRGEDGDKEDEASLEADSVVVLEIRRSLTKLRHYLQKRIPYGSISEPVVPPAPTSPQEGENSCGGRGAYKALQSSKPVEPPVCAVDAFLYLEEDIDALADQGHISREYCRSCGSVDIGLCQFITHSFSLEQLIFLSCFLLPSFGDTSYCLTSDNVWRPRHKNCHTVAAAFSCEHVVEVGSRLGIVPMSCYFASEQQRLLNTRRVTAIELDKELVALQQEVFQKFARGPTAAHLNLVHSDCFEGEGLEALRSADIIILHNIFEYFTASAEEHLRSWKRLRAAVVRSGQLLVCCPPLQETLAAFSEDCVRKVFINEQDKVDFVHVHQSNSNAGRISRKRCRQPPQEHSFTLDQWWRSWVKEIDVEHIRRSFLTAQRFCEEDHPCDSSYGDADDELVKELKDMRVYMVQ | not soluble
5 | QGIETVTKANGYETLLAHFSYDELEEERKIASLLSYQVDGLILTESHHTPRTLQMIKNAGVPVVETMELPPQPIDMAVGLDHEDASYNAVKRMLDAGKRTIVYFGARLDTRTKLRMQGYDRAMNEAGLEPKHVLTGVHSSFSLAHDLLERALKTYPTLDGVFCTNDDIAIGTMLSAQQRGIQVPQQLAVVGYNALDIGQTISPKLTSVDTPRFQIGVKSAELLIARLKGEAQEEKVFDMGYQITSGESV | not soluble
6 | MDMPVDPNEPTYCLCHQVSYGEMIGCDNPDCSIEWFHFACVGLTTKPRGKWFCPRCSQER | soluble
7 | LLGDEAIALGAIHAGISGVYAYPGTPSTEITEFIQNNRLAKERKLHSTWCTNEKTAMEAALGMSYAGKRALVCMKHVGMNVAADAFVNSAITGVNGGLVVLAADDPSMHSSQNEQDSRFYGKFAMIPMLEPSSQQEAYDMMDYAYTLSEKLKLPVLMRVVTRLAHSRAGVEVADIREENQLNPDHERAHWVLLPGNARKQYLDLVKKQEKLEEASSKSPYNYLEGLNPEYDYEFGVIACGIGYNYVKEADTDSCHIPVLKVSQYPLPAEEIRTMADRCGYVLVVEDGQPFVEEQVKAILSSDYEVKGRLTETLPRTGELTPDNVGEAIGWGIKRPFGKSQVVMPRPPALCQGCGHRDVYDALNKVAAEYPDARIFGDIGCYTLGALPPFRAIDSCVDMGASITMAKGASDAGVFPAIAVIGDSTFTHSGMTGLLDAVNDRANITVVISDNLTTAMTGGQDSAGTNKFEAICLGLGVEPEHVRVVVPLPKNMEEITRTIREEIEY | not soluble
8 | MGSDKIHHHHHHLYSFTIASDTIELVKSLHYSILVLNMEAEEMFSKKQDPFAVKLSEIAGHLQRTSQFFVDFKINGIADVKEFAHKVKDFETAGDDLMHQLIIDLNNAFITPIDREDLLALANSLDDVLDGFEECSAIFEIYNIVQADEHMIRFVDEIHIAVNELALSMDLLVARKLQPMREHVIKVKEQETICDNLRRKSIKALFATETDPIKIIQYKEIYESLESIADYCQDAANVIETIIMKNA | not soluble
9 | MQNIHQHNYVISLKTADARRQHIIQEFAKHNIPFQFFDACSIENNLYMDIEKHLPMLLNSKLSNSEKGCLMSHFLLWKKCVLDDIPYMTIFEDDIILSDESNEFISDYSWVNNRFYEQKEILIKFETFLMPVIRKFTKINEYKERAFNQLISRHFGTASYLISKEAAKYLILLYEKLPADELIAVDESIFNVLLNDKNLCVYQLEPAICVQELQFNKENSLLISQIEEDRYKNQKQNKPRKTLKQRIIKVCYNINRIFKKIKKTKLSDEKDINSDIVKFKLEHHHHHH | not soluble
10 | MSNPEQHIQDLALEEVMGDRFGRYSKYIIQERALPDVRDGLKPVQRRILFAMNVEGNTAEKGFRKSAKTVGNVIGNYHPHGDSSVYEAMVRMSQDWKVRNMLIEMHGNNGSVDGDPPAAMRYTEARLSPISAELLRDIEKETVDFIPNFDDTSSEPTVLPARFPNLLVNGSTGISAGYATDIPPHNLTEIIEAVIKRLDNPLCTTDDIMKIVKGPDFPTGGIIQGIDGIRKAYQTGKGRVVVRSKTEIEDIRGGRKQITIHEIPYEVNKANLVKRMDELRIEKKIEGISEVRDETDRTGLRIAVELKKDANAEGVLNYLFKNTDLQVSYNFNMVAINKKRPELMGIIPMLDAYIEHQKEIITKRSEYDIRKARARQHILEGLIKALSILDEVIKLIRGSKDKRDAKLNLQTKYDFSEKQAEAIVSLQLYRLTNTDIHELQSEAKSLAEQISVLEKILGDEAELIAVLKEELAEIKKKYKTARRTEVQAEIAEIKIDTEVLVANEDVIVSVTKEGYVKRTSQRSYAASNGAELAMKEADHAIFIQKMNSLDSLLLFTSKGNFIYRPVHELPDIRWKNLGDHVSHLASDLSAGEEIRSAIAIQAFTEEKRFLFVTKNGMTKQSAITNYKPQRYSKSMMAIKLKGDDELLSVHLIDGTEDIFLATKNGYGLRYSITEIPESGARTAGVKAINLKQDDIVIGGIVLMPNEQKHILLATQRGSLKQMKASEFEPISRAKRGLLMLRELKSNPHRFIGITLADNNDHLFIETNTDQIVEIDVANLRITDRYSNGSFVLDETMEGEPTSIWLAIPEIKDTSDAKEE | not soluble
11 | MSRLPLLLLSVLLATPAAQASDCPDLALVLALDSSLSIDRAEFALQAEGYAEAFRSPAVQAALAAAGTVDVAAVVWSDGAAPPARLGWQRIAAPEDARRLAVRLAALERVAPGRTGVGGGLAAALEMLAGHGCAGRRLVNLSGDGRETLAPRMGLRGQLMRARAEAEALGATVNALAVTDEEADLPDWFRSHVIVGPGAFVMETREFRGFAEAVARKLVREIAPPALAAGRPGLPPHRLTPGGRDHPARRSLEHHHHHH | not soluble
12 | MAEVESFSLDHTKVKAPYVRLAGRKALAGGVVEKYDLRLAQPNREALPTGALHTLEHLLAGYLRDHLPGVIDLSPMGCRTGFYLVVEGPVGEEKVLEAFAQALKDVLAHEGEVPGASFRECGNYRDHDLPGAKAWAEKVLKAGLRVQATVPLEAR | soluble
13 | MGSDKIHHHHHHMRKSIVLSTAMALAAGTAAYAAEISDGKVKIGILNDQSGVYANFGGKYSYEAAKMAVEDFGGKVLGAPVEVVTADHQNKADVASNIARQWYDTEQVDSIMELTSSSVGLAVQALSKDKKKITVNTGAATTELTGKQCSPYGFHWAYDTYSLAVGTGGALVKQGGDSWFFLTADYAFGYSLEENTSNFVKANGGKVLGSVRHPLATTDYSSFLLQAQSSGAKVIGLANAGLDTSNAIKQASEFGIVAGGQRLAALLFTLAEVHGLGLEAAQGLTLTEGFYWDRDDESRKFGERFKERTGAMPNMIHTGTYSAVLHYLKAIEKAGTDDADAVAKAMKEMPVNDVFAKDGHVAANGRMIHDMYLMEVKKPDESKQPWDYYKVLATIPGKEAFMDPTKSGCPLVKQ | not soluble
14 | MAHHHHHHMRKKLVLPLSIGRGFSSWDDGSDGHEWKSRALAEKRLLALTYLGDVNKRVQIHDAIRLRGEVNKQAIRACELPTFFQTKETNEAENLQEIDYHSLLSMIEGEFEVDTLAHIAPSDANFLKTEFLQCDDSAEVKLLGQWSNLRRDTADYNNYASIPDGERNAWSAWYLRNVRPGKTEND | not soluble
15 | MSLKITELSRDLTTGLTTATTSIADYFFGNTHHSHHVFYLNLTVLKAKRAAKVENKKFIDLKLIKLTSGNGGNGCVSFFKDNFKPMGPPDGGDGGNGGSIYLNVVDKNITSLHGLQKRYVAKGGQPGKGSQLDGKSGDDIIIDIPLGTIVRWIPDPQDFKKFVSQREGDALNDVFMEFDIDDRDFIQLNRGGYRPGEGWIFKEHDEEYFRDKDFFQDLNEKVTGYDEELLFEESYNDRFPIVGLDCNQVTQKPLLLLRGGKGGLGNMHFLTKEIKGPRFCKMGRPGITANFLLELKLIADLGLVGLPNAGKSSLLRAISKARPRVGHWEFTTLQPTVGTIFTRIDKDPFTVADIPGIIKGASQNKGMGLDFLRHIERSGGLVFVVSLESANPVDDLKILLEEVGPRRMKDKNVLVVATKADLSSEGANFKVLRDYIEHNHSEWKIVPVCAPKGENVERCIKLMSEIAQTKKKEGHHHHHH | soluble
16 | AIAGCLFSVPEGGYLEVNEERSAGAYDSLSTASGIDDLHDERQPKAAYSMEDSSADLVAEDGAAVHQEVLNAHDDAWCRFDATSDATNEGAAAGGIGAPPSPLDLSLDSVVQQAYQDRVLVVFSGKAFGIALQLQMHWAALGASSAAPECVMDACVPESLLRAVHACLRAHMHACERIANRWNPDSELSAACSSAHPKKAVEVGTILYALLAEAHRLHRVTGGRFDPTCGALWRGFRATLRSSALQRPPQGRAFST | soluble
17 | DIVLTQSPSSLAVSLGQRATISCRASQSVSTSSFRYMHWYQQKPGQPPRLLIKYASNLESGVPARFSGSGSGTDFTLNIHPVEEEDTATYYCQHSWEIPYTFGGGTKLEIKRADAAPTVSIFPPSSEQLTSGGASVVCFLNNFYPKDINVKWKIDGSERQNGVLNSWTDQDSKDSTYSMSSTLTLTKDEYERHNSYTCEATHKTSTSPIVKSFNRNEC | soluble
18 | MRVKEQLLTLRAYVPGKNIEEVKREYGLSKIVKLASNENPFGCSARVTEALTSLASQYALYPDGHAFELRTQVAKHLGVKAEQLLFGSGLDEVIQMISRALLHEGTNVVMANPTFSQYHHHAVIEGAEVREVSLKDGIHDLDAMLQQVDDQTKIVWICNPNNPTGTYVEKQKLLSFLESVPKSALVIMDEAYYEYAGAEDYPQTLPLLEKYENLMVLRTFSKAYGLAAFRIGYAVGNTELIGQLEVARLPFNTSTVAQSVALAALEDQAFLQECVKKNEEGLHQYYAFCKEYNVFYYPSQTNFIFLKLGIPGNEAFERLMKKGYIVRSGAAFGIDDGIRITVGLKEENDEIIELLKELVNEQVQKEETYS | soluble
19 | MSLPANKLVFVGGMGAGKTTAVRAISDVEPVSTEMPLSQDAYGDKTYTTVALDYSSIELEDGELLHVYGVPGQKYLDFMWPLVCDGALGVIVLTSARDTQMRDTTLELLREFSRITPEASLAVGVTMTDEVQEFLLPPFREALVAEGFRIPVMRVDARSATQITFLVKTLLSYRYTSAPVLEHHHHHH | soluble
